T1: hexahistidine-tagged cynomolgus monkey IL-4Rα extracellular domain (cynomolgus monkey, UniProt P24394 26-231 (human entry))
T1 construct: also called cynomolgus monkey IL-4Rα ECD; not shown: hexahistidine tag
T1 chain: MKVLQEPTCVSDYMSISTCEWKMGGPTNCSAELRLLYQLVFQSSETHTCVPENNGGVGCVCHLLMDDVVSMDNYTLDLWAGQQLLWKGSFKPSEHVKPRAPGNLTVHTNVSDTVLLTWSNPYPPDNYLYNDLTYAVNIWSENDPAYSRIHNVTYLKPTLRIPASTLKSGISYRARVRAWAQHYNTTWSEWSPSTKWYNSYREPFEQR

B1: anti-human IL-4Rα antibody Ab1 (antibody, human IgG4 S228P, kappa)
heavy: QVQLVESGGGLVQPGGSLRLSCVASGFTFSHSSMNWVRQAPGKGLEWVSYISRATGAVYYADSVKGRFTISRDNAKNSLYLQMNSLRDEDTAVYYCAREPVFDYWGQGTLVTVSSASTKGPCVFPLAPCSRSTSESTAALGCLVKDYFPEPVTVSWNSGALTSGVHTFPAVLQSSGLYSLSSVVTVPSSSLGTKTYTCNVDHKPSNTKVDKRVESKYGPPCPPCPAPEFLGGPSVFLFPPKPKDTLMISRTPEVTCVVVDVSQEDPEVKFNWYVDGVEVHNAKTKPREEQFNSTYRVVSVLTVLHQDWLNGKEYKCKVSNKGLPSSIEKTISKAKGQPREPQVYTLPPSREEMTKNQVSLTCLVKGFYPSDICVEWESNGQPENNYKTTPPVLDSDGSFFLYSRLTVDKSRWQQGNVFSCSVMHEALHNHYTQKSLSLSLG
light: DIQMTQSPSAMSASVGDRVTITCRASQDISNYLAWFQQKPGKVPTRLIYAASSLQSGVPSRFSGSGSGTEFTLTISSLQPEDFATYYCLQWSSYPRTFGQGTKVEIKRTVAAPSVFIFPPSDEQLKSGTASVVCLLNNFYPREAKVQWKVDNALQSGNSQESVTEQDSKDSTYSLSSTLTLSKADYEKHKVYACEVTHQGLSSPVTKSFNRGEC
notes: human kappa light chain; also called anti-human IL-4Rα Ab1; unconjugated Ab1
B2: anti-human IL-4Rα Ab1 GC conjugate of Example 1b (n=4) (antibody, human IgG4 S228P, kappa)
heavy: B1 heavy
light: B1 light
modifications: glucocorticoid receptor agonist payload-linker (GC-L, Preparation 8) conjugated to the engineered cysteines at the 124 and 378 position of the heavy chain (EU numbering); n is 4 (average DAR 4.17 by RP-HPLC, 3.85 by TOF MS)

What was measured:
[1] = target: T2, hexahistidine tagged human IL-4Rα ECD E6R (human, UniProt P24394 26-232); assay: capture ELISA: Ab1 on anti-human IgG Fc, His-tagged receptor at 1 µg/mL, anti-His HRP
T2 construct: not shown: hexahistidine tag
T2 sequence (P24394 other isoform, or with tags, fused parts or gaps): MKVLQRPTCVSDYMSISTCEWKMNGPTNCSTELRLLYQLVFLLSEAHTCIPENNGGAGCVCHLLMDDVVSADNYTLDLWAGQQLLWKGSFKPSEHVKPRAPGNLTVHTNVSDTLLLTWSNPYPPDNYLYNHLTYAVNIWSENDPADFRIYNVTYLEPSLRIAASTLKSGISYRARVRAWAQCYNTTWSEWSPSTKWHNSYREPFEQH
Excerpt: (§1) Example 2d. […] Briefly, thirty surface amino acid residue substitutions were introduced individually into hexahistidine tagged human IL-4Rα extra cellular domain (ECD) as follows: K2D, E6R, K22D, P26R, T31R, F41A, L42G, L43G, E45R, E52R, G56R, D66R, A71R, Q82G, K87D, E94R, H107A, D108R, P124R, D125R, D143R, R148D, L155R, R160D, S164R, S168R, Q181R, P192R, K195D, or H197G. Each mutant protein having a single amino acid residue substitution as described above was transiently expressed in CHO cells and purified using standard immobilized metal affinity chromatography techniques. […] The plates were then washed 3 times with PBST and the exemplified human IL-4Rα antibody was added to the wells at a final concentration of 1 μg/mL in PBS-casein and incubated for 1 hour at room temperature. The plates were washed 3 times with PBST, the IL-4Rα mutant proteins were serially diluted 5-fold from 1 μg/mL for 3 points. in PBS-casein and added to the plate at 50 μL/well and incubated for 1 hour at room temperature. The plates were washed 3 times with PBST and a 1000-fold dilution of anti-histidine tag antibody HRP conjugate (R&D Systems, Cat. #MAB050H) in PBS-casein was added and incubated for 45 minutes at room temperature. The plates were washed 3 times, TMB substrate (Pierce, Cat. #34028) was added per manufacturer instructions, the reaction was quenched with H₂SO₄, and absorbance was read at 450 nm on an ELISA plate reader.

[2] = target: T3, hexahistidine tagged human IL-4Rα ECD P26R (human, UniProt P24394 26-232); assay: as above
T3 construct: not shown: hexahistidine tag
Excerpt: as §1

[3] = target: T4, hexahistidine tagged human IL-4Rα ECD F41A (human, UniProt P24394 26-232); assay: as above
T4 construct: not shown: hexahistidine tag
Excerpt: as §1

[4] = target: T5, hexahistidine tagged human IL-4Rα ECD G56R (human, UniProt P24394 26-232); assay: as above
T5 construct: not shown: hexahistidine tag
Excerpt: as §1

[5] = target: T6, hexahistidine tagged human IL-4Rα ECD K87D (human, UniProt P24394 26-232); assay: as above
T6 construct: not shown: hexahistidine tag
Excerpt: as §1

[6] = target: T7, hexahistidine tagged human IL-4Rα ECD T108R (human, UniProt P24394 26-232); assay: as above
T7 construct: also called D108R; not shown: hexahistidine tag
Excerpt: as §1

[7] = target: T8, hexahistidine tagged human IL-4Rα ECD S164R (human, UniProt P24394 26-232); assay: as above
T8 construct: not shown: hexahistidine tag
Excerpt: as §1

[8] = target: T9, hexahistidine tagged human IL-4Rα ECD S168R (human, UniProt P24394 26-232); assay: as above
T9 construct: not shown: hexahistidine tag
Excerpt: as §1

[9] = target: T10, hexahistidine tagged human IL-4Rα ECD P192R (human, UniProt P24394 26-232); assay: as above
T10 construct: not shown: hexahistidine tag
Excerpt: as §1

[10] = target: T11, hexahistidine tagged human IL-4Rα ECD K195D (human, UniProt P24394 26-232); assay: as above
T11 construct: not shown: hexahistidine tag
Excerpt: as §1

[11] = target: T12, hexahistidine tagged human IL-4Rα ECD H197G (human, UniProt P24394 26-232); assay: as above
T12 construct: not shown: hexahistidine tag
Excerpt: as §1

[12] = target: T1, hexahistidine-tagged cynomolgus monkey …; assay: competition MSD ELISA (solution equilibrium, 37 °C), apparent KD, mean of 3 experiments
Description: Example 3a. […] A 96-well multi-array plate (Meso Scale Diagnostics, Cat. #L15XA-3) was coated at 4° C. overnight with 0.5 μg/mL hexahistidine-tagged human or cynomolgus monkey IL-4Rα ECD in phosphate buffered saline (PBS). Following coating, plates were washed 10 times with 200 μL PBST (PBS with 0.05% Tween® 20) and blocked with 300 μL/well of PBS casein blocking buffer (Pierce, Cat. #37528) at 37° C. for 1 hour. Plates were then washed 10 times as above, and 50 μL of the preincubated antibody:IL-4Rα dilution series was transferred to the wells and incubated at 37° C. with 300 rpm shaking for […]. Plates were washed 10 times with PBST, 50 μL of 1 μg/mL anti-human antibody sulfo-tag 20 (Meso Scale Diagnostics, Cat. #R32AJ-1) was added to the plates for the assay of Table 7a, and anti-Human NHP Kappa Light chain SULFO-TAG 20 (Meso Scale Diagnostics, Cat #D20TF-6) was added to the plates for the assay of Table 7b, and plates were incubated at 37° C. with 300 rpm shaking for 30 minutes. Plates were washed 10 times with PBST, 150 μL/well of 1× Read Buffer T was added to the wells and analyzed on a SECTOR® Imager 6000 (Meso Scale Diagnostics) 15 min after buffer addition. The apparent KD is determined by fitting a sigmoidal curve to the electrochemiluminescence (ECL) response vs. log (soluble IL-4Rα concentration) using GraphPad Prism 9. Data is graphed with normalized ECL values.

Row | Binder | ELISA (OD450) [1] | ELISA (OD450) [2] | ELISA (OD450) [3] | ELISA (OD450) [4] | ELISA (OD450) [5] | ELISA (OD450) [6] | ELISA (OD450) [7] | ELISA (OD450) [8] | ELISA (OD450) [9] | ELISA (OD450) [10] | ELISA (OD450) [11] | Kd [12]
1 | B1 | 2.25 OD450 | 1.66 OD450 | 1.76 OD450 | 1.73 OD450 | 1.75 OD450 | 1.88 OD450 | 1.92 OD450 | 1.88 OD450 | 1.94 OD450 | 1.91 OD450 | 1.85 OD450 | –
2 | B2 | – | – | – | – | – | – | – | – | – | – | – | 0.0458 nM
